The text below walks through data of publication PMC4627082, “MCM ring hexamerization is a prerequisite for DNA-binding” (Nucleic Acids Research, 2015).

The target of data set [1] is PfMCMN-WT (residues 1–256), amino-terminal domain of Pyrococcus furiosus MCM (Pyrococcus furiosus) (UniProt Q8U3I4). As to the kind of experiment: AUC; sedimentation velocity at the highest PfMCMN-WT concentration (350 μM), co-interpreted with sedimentation equilibrium; 20°C, 20 mM HEPES pH 7.6, 200 mM NaCl, 5 mM β-mercaptoethanol.
Data set [2] has the same target. Briefly: AUC; sedimentation equilibrium of apoproteins, 12-51 μM, 20°C, 20 mM HEPES pH 7.6, 200 mM NaCl, 5 mM β-mercaptoethanol, absorbance 280 nm; reversible monomer-hexamer (WT, hexamer to monomers) or monomer-pentamer (βT, pentamer to monomers) model; the constant is the protein concentration where half of the protein is monomeric.
Data set [3] has the same target. As to the kind of experiment: AUC; sedimentation velocity, 20°C, 50 000 rpm, 20 mM HEPES pH 7.6, 200 mM NaCl, 5 mM β-mercaptoethanol, interference and absorbance optics, c(s) distributions; isotherm of signal-average s-values fitted to monomer-hexamer self-association; some WT samples with 40-mer oligo-dT ssDNA (T40).
Data set [4] deals with the molecule itself. As to the kind of experiment: AUC; sedimentation equilibrium of apoproteins, 12-51 μM, 20°C, 20 mM HEPES pH 7.6, 200 mM NaCl, 5 mM β-mercaptoethanol, absorbance 280 nm; reversible monomer-hexamer (WT, hexamer to monomers) or monomer-pentamer (βT, pentamer to monomers) model; the constant is the protein concentration where half of the protein is monomeric.

Data set [5] deals with the molecule itself. Briefly: AUC; sedimentation velocity, 20°C, 50 000 rpm, 20 mM HEPES pH 7.6, 200 mM NaCl, 5 mM β-mercaptoethanol, interference and absorbance optics, c(s) distributions; isotherm of signal-average s-values fitted to monomer-hexamer self-association; some WT samples with 40-mer oligo-dT ssDNA (T40).
Data set [6] deals with the molecule itself. Briefly: SEC; final size-exclusion chromatography step of purification; elution volume compared with PfMCMN-WT. (In general: SEC sorts molecules by how far they enter the pores of the column.)

The stoichiometry N is the number of molecules, sites or subunits per partner or assembly. By Kd is commonly meant the free concentration of one partner at which half of the binding sites on the other are occupied at equilibrium, for simple one-to-one binding.

“PfMCMN-WT (residues 1–256), amino-terminal domain of Pyrococcus furiosus MCM (from UniProt Q8U3I4 1-256) (domain or fragment)” displayed a stoichiometry N in data set [1] of 12. Besides, in data set [2], the Kd amounted to 60 µM. Further, in data set [3], the Kd was found to be 58 µM, the percent hexamer at 15 μM with T40 ssDNA stood at 55%, the percent hexamer at 38 μM with T40 ssDNA was 72% and the percent hexamer at 45 μM with T40 ssDNA is 72%. In data set [3], this molecule gave a percent hexamer at 128 μM with T40 ssDNA of 82%, a percent of protein in the hexameric fraction at 76 μM of 37%, a percent of protein in the hexameric fraction at 180 μM of 60% and a stoichiometry N of 6.

B1: PfMCMN-βT (1–256; K233A; R234A; K236A) (domain or fragment, Pyrococcus furiosus, UniProt Q8U3I4 1-256, looked up)
chain: MDREEMIERFANFLREYTDEDGNPVYRGKITDLLTITPKRSVAIDWMHLNSFDSELAHEVIENPEEGISAAEDAIQIVLREDFQREDVGKIHARFYNLPETLMVKDIGAEHINKLIQVEGIVTRVGEIKPFVSVAVFVCKDCGHEMIVPQKPYESLEKVKKCEQCGSKNIELDVNKSSFVNFQSFRIQDRPETLKGGEMPRFIDGILLDDIVDVALPGDRVIVTGILRVVLEAAEATPIFRKILEVNHIEPVSKEI
notes: Minichromosome Maintenance (MCM) protein of Pyrococcus furiosus, N-terminal domain, residues 1-256, with three alanine mutations of the β-turn; Made by site-directed mutagenesis of the PfMCMN-WT SUMO-fusion construct; SUMO removed by Ulp1; also called β-turn triple mutant; pCF076.1
B1 had a Kd in data set [4] of 8 µM. The “stoichiometry N” value in data set [5] was 5; in data set [6], about 3.
